Assay results reported in the DeepSol protein solubility set.

Test: soluble on expression in E. coli; label from the status in PepcDB or PDB records

Sequence | soluble on expression in E. coli
MGSDKIHHHHHHMKETWISERRMIQLPGLTIDRHISAPNELEFPGCKYHLLCILLSDHNQQKMTRIGEQESQKSQAKGDFWICPAKMSGIWSWNSTDESLTFVIDPLFLSRMAEEVGELNESKVELLSTVNAHDPQIEAIARLFQAEFDTGGLGGHLYAESLIQVLIVHLLRQYCAFSPKIKPDVGSMPNNRLQPVFDYIHSYLDRPLLLAELAEISGISQYYFCRLFKQSMGVAPYQYVLQQRMEKAKELLHQRKYAIAEIALLVGCADQSRFTRHFKKYVGVTPRMFLSKK | not soluble
MSRQACKKSFSCGSQGFSGHSAVVSGSSRSSCVARSGAASGGACGFRSGAGSLGSHSLYSLGGSKSISISVAAGGSRAGGFSGGRSSCGSGFGSGYGGSLGGSRGMGAGFGGPSGFGGAGGFGRPGSFGPGSCPGGIQEVTINQSLLQPLNVEIDPQIGQVKAQEREQIKTLNNKFASFIDKVRFLEQQNKVLETKWELLQQQTIRSGSGPQNLEPFFESCISCLRKQLDSLLGAKGSLEGELKSMQDLVEDFKKKYEEEINRRTAAENEFVGLKKDVDGAFMNKVELQAKVDSLTDEINFLRTLYDMELSQIQSHVSDTSVVLSMDNNRCLDLDSIIAEVKAQYEDIAQKSKAEAEALYQTKLGELQTTAGRHGDDLRSTKSEIMDLNRMIQRLRAEIENVKKQNTNMQTSIAEAEQRGERALKDADTKFQYLQVALQKAKEDMARLLKEYQELMNVKLALDVEIATYRKLLEGEECRLSGEFQNAVSISVVSNVTSTSSSGSFRGTGGSNYGGDSSGRSGGSSSSSSRGSSSRGSSGSRLGSGGSISVSQQRMGFNSGGSQTSVGSSYKSGRGGSSSVQFSQTTSSSQQRSK | soluble
MYEGESVVQLAKRMIEHLLKWGVTDAFTDKQIYTILEKAESTLKPLPAMLQVEHPITIVGDIHGQLDALIRYFDAVGYPPKVQFLFLGDYVDRGAKSFEVSLLLFCYKIRYPHLNVFNELPLCARVGQRILCMHGGISQNCNSWESFKALKKPNTPLTCDEGLQVDLMWADPTQDKCNTFAMNKQRAISVVFGQKGLDDFLKKLGLSLIVRAHEVSQEGFNFLFNKKCVTVFSAPYYCGNDTNCGAIMHVSDSYELSFTVLRPRMIATPENFEIVKLMENNYKGLMVASPDPNRGRHLQSADVPQPTPPSVQLVPPVTKPVEIKKQ | not soluble
MGSDKIHHHHHHMSYVAVKGGSTAIRAAHRLVRKRMRGDPDAPEITPRQICEQMHLGVDRVMAEASLYDEDLAARAMLQAQGDMIEAIFLLRAYRATLTRFLDSTPLAMDTMRVQRRISAAFKELPGGQQLGQTYDYSHRLFGYFDRLETKSDIESGKTEVPPEPMTSVMDLLEKEGLMELAAACEPPAENMQQDITRHPLLFPATRAQRLQSLARGDEGFLLSMAYSTQRGYGQNHPFIAELRMGDVTVEITPPELGFPIEIGTITVTECQMINQFQARSPEEAAFTRGYGLVFGHSERKAIAMALVDRALRAGELGEEALSPAQNEQFVLSHCDNVETTGFVEHLKLPHYVDFQSEIQTLRHLHKTAAKDGADRV | not soluble
MSQLPTDFASLIKRFQFVSVLDSNPQTKVMSLLGTIDNKDAIITAEKTHFLFDETVRRPSQDGRSTPVLYNCENEYSCINGIQELKEITSNDIYYWGLSVIKQDMESNPTAKLNLIWPATPIHIKKYEQQNFHLVRETPEMYKRIVQPYIEEMCNNGRLKWVNNILYEGAESERVVYKDFSEENKDDGFLILPDMKWDGMNLDSLYLVAIVYRTDIKTIRDLRYSDRQWLINLNNKIRSIVPGCYNYAVHPDELRILVHYQPSYYHFHIHIVNIKHPGLGNSIAAGKAILLEDIIEMLNYLGPEGYMNKTITYAIGENHDLWKRGLEEELTKQLERDGIPKIPKIVNGFK | soluble
MTTHSAHLLRRLNPYCAQALAGAATLCQTRAHAEITVEHWLLKLLEQGEGDITVIARRYEWDMDSLWQGLLSHLDTLPRTVQGKPQLSAALQQLIKNAWLDASLQENADAVRSVHLMAALIATPSLLVAEAAWPLLSLSTTQLQRLLPLLDNQSDERPEVQQAAALADSPVNLTDEAATVTSASGQPQLNDALQAALDKFTLDVTAKARANQIDPIFGRDSEIRQMIDILSRRRKNNPILVGEPGVGKTALVEGLALRIADGNVPDSLKTVSVRTLDLGLLQAGAGVKGEFEQRLKNVIEAVQQSPSPVLLFIDEAHTIIGAGNQAGGADAANLLKPALARGELRTIAATTWSEYKQYFERDAALERRFQMVKVDEPDDDTACLMLRGLKERYATHHGVHILDAAITAAVTLSRRFLTGRQLPDKAVDLLDTAGARVRMSIDTLPTALMEINAELAALAMEQQAIEQDLLLLPNVSSTRLPEIEQRRAALAVGQHTLEQQYKEEKRLTTLIIEARQDIANAAHLVALQEELVQIQGNAPLLSLDVDVRTVAAVIADWTGVPLGSLLKDEQTNLLSLENRLGERVIGQDAALGALAQRLRAAKTGLTSENGPLGVFLLVGPSGIGKTETALALADSLFGGEKSLITINLSEYQEAHTVSQLKGSPPGYVGYGQGGVLTEAVRKRPYSVVLLDEVEKAHRDVLNLFYQVFDRGFMRDGEGREIDFRNTVIVMTANLGSDHLMQLLDEQPDAPDSTLHELLRPILRDHFQPALLARFQTLIYRPLQVDALKRIVAIKLNQVAQRLHCHYGLSCQIEDSLTDTLVAACLLPDTGARNIDSLLNQQILPVLSQQLLSRMSEQQRTTSLTLGWHEEDGITLTFEGE | not soluble
MGHHHHHHSHMANSAGSMANSAGSMPSSPLRVAVVCSSNQNRSMEAHNILSKRGFSVRSFGTGTHVKLPGPAPDKPNVYDFKTTYDQMYNDLLRKDKELYTQNGILHMLDRNKRIKPRPERFQNCKDLFDLILTCEERVYDQVVEDLNSREQETCQPVHVVNVDIQDNHEEATLGAFLICELCQCIQHTEDMENEIDELLQEFEEKSGRTFLHTVCFY | soluble
YALTEGEDYLVLDKPIPQEQPGKIEVLEFFGYFCVHCHHFDPLLLKLGKALPSDTYLRTEHVVWRPEMLGLARMAAAVKLSGLKYQANSAVFKAVYEQKIRLENRAVAGKWALSQKGFDGKKLMRAYDSPEAAAVALKMQKLTEQYGIDSTPTVIVGGKYRVIFNNGFDGGVHTIKELVAK | not soluble
MGSDKIHHHHHHMEILLARQPIVDRFGSIDAFELLYRSVETPAVFDGDLATMDVLTNTLIHLGVDRVAEGKRLFINFTGDLLQSELIDHLNPTQFVIEVLETVQIDEMMLQTLQKWKEAGFVLALDDFVTDLLRHHGPELFDLIDLIKIDIEAINPREQSAILHILKRNYPHIRFLAERVETHEDHTRSLAMGYDWFQGYFYAKPMLMKGKAVPPQVPVLLKMLKWLDTDDHYDDVVDEIEGNPYISVQVLQLINSPGIGLRNMVSSVRQAISLLGFSQLKSWISLIVLREMKLASPYQWSDELLRSSLHCAKLCQLFATETKTLKAESAYMIGLLSHIDALLSVDIGEIIDQLPIEPALKNVLQGEDHPFRDCLLLAISADRGEFERFEMLSNRFGIMKHRAYELLKESQVWLSQKELHLQDKTDSIV | not soluble
VGDLYYHVGVNATFIKNELTEVNGSRDEWQGFNPHAKGTITYAKTGHSIGYFNLIKTDGVFQSQQEIDAYVDKNGNKIQPNAQPGDLRFVDYNGDGKIDNNDRQDVGSAFPKVNLGVSLGAEWKGLDLNMFFDGNFGNKIYNAQYYSTVYNESTGNQYAERMNSWTENNHSDIPRCLFGTSDPNGTNWGYTDRWLENGSFLRLKTLELGYTLPKVWVSKAGLQNVRVYTAMENLFTITDYKGYTPDLGMVDADGAGTSGGSGVMTRGCDDGRYPMARTITFGLQVNF | not soluble
NLEGKGCSVLDQAGLAQKFGPVVSHIRIAARQEDLFAVRIAAGEAHLLLGCDLLVAAGPDAIAKLDSKISHAVINSQQTPTAEFTRNPDAVFPAEAMKQTIIDAVGADKTHFVEATSLATRLMGDSIASNLFMLGYAFQLGLIPLTSAAIEKAIELNGVAVNLNQQAFLWGRRTAHDPAAVEAFVNPQP | not soluble
MGSDKIHHHHHHMKRKTLPKLLYADAKGNIFDHPHLCMAGMSGSEAVLPESVELIPLPEGSRLFTIPDTPPVAWDEQQRKFVTVASVREGRRPMPVQAVSAFMAPGYVRLLLPACDYSRKKVHLPLWSYTAVGWDEERDCFVVAASRVDTNQNWNPCNYDDRKLDPLVRQRLAEMPHNRLLEQLARCAVDYHCFAAKNLFFRRWEAPLPTSPACNSRCLGCISLQPSDCCPANHERIGFVPTPEEIVELALPHLLEAPEPIVSYGQGCEGDPIMQADTVAEATRRLKAATSRGTVNFNSNGSFPDRIAMLCDAGMDSMRFSMNSVREEVYDRYYRPVGYRFAEVKESVRLAGERGLFTMINYLVSPGVSDSADEVEALLRFIGETGVKMIQMRNLSIDPDFYNKRMGATGRGIGMYRMLERVKREFPHIQYGYYNRTRENFFPAGYEKGWPIR | not soluble
MSLKLHHLNDSRSFRILWLLEEIGQPYEIIRYQRDKETHLAPETLKDIHPLGKSPVIELDGKIIAESGSITEVLIKEFAPHLAPNEKSPEYIDYLQWIHFSESSAMLPLLLKIFNEFETRSGTDLKFLKNYAEIEFNKVFSYLNNHLNNKKFLVEDRLTGADFMLGFVVKGALNLLKSSGAFPHIESYITNIENQISYKRALDIDANEGHHHHHH | soluble
MSLKNPCNAEFQNFCIHGECKYIEHLEAVTCKCQQEYFGERCGEKSMKTHSMIDSSEGHHHHHH | not soluble
MNHVSHTGSYYAASANDKVQRSKLTEDITADICVVGSGFTGLSSALHLAEKGFKVVVVEGSRIGFGASGRNGGQLVNSYSRDMDFIERNYGKHVSTEMGQMAFEGSRIIKRLINDYDIKCDLRPGGVFAACNSKQLDEMAEKQKLWAKHGYHETELLSASDIQNHVGTERYVGGLLDKAGGHIHPLNLALGEAAAFEKLGGIIYEDSIVVDIVHGKKAVIKTDSGSVTADFVVVAGNAYLEGLLPKQQKQSMPCGTQIITTEVLPEAMQKQLLPTDVCVEDCNYLLDYFRLSGDGRLIYGGGTTYGAREPSKIESIIIPKMLKTFPQLKDVKIDYAWTGNFLLTLMRLPQFGRINDNVYYAQGYSGHGVTSTHLAGKVIADAITGQAERFDVFAGLPQYPFPGGRLFKTPYTAMGAWYYQMRDKLGILEHHHHHH | soluble
MSLRNQSKMPLVERLDAHAKSCPISLHVPGHKSGAIYPDAWQKLLKWDVTEITGMDDLHHPEDVILEAEELLAECYGSKKSYFLVNGTSGGNVAVIMATLKRGEKVLVPRDAHKSILHGIELAGGEPIFLTPATNKEVGVASGVTTELLEETLHNHPDVKLCIFTYPSYYGTTFNLQKCIRIAHDFGAVVFVDEAHGAHFLTSSEFPKSAVELGADVVVQSAHKTLPALTMGSYLHVVNDLPIFEKLAYYLQVFQTSSPSYLIMASLDAARKYVATYTAADVEAFWKMRARWIKWLTKNKFEVILPDDPLKIIVRKTGYTGYELQAIFEESSYFPELADESQVLLILPLIKKGIDFTPISRIHSPMKKEIAKEPYEMSTPCASGLALTYEEMHARATEFVLLDEATTRVSAETISLYPPGIPAIIRGEGITEKHIRELKNIRTRHYQGGEKLAENYIRVFREGHHHHHH | soluble
GPLGSNMDAAEVEFLAEKELVTIIPNFSLDKIYLIGGDLGPFNPGLPVEVPLWLAINLKQRQKCRLLPPEWMDVEKLEKMRDHERKEETFTPMPSPYYMELTKLLLNHASDNIPKADEIRTLVKDMWDTRIAKLRVSADSFVRQQEAHAKLDNLTLMEINTSGTFLTQALNHMYKLRTNLQPLESTQSQDF | soluble
MRELQTLLISCLKQERISGSMFRVLGKVVNHVVCEMFKHQDIAWDGLRDYIVSQSKTKFQRAVYIFQCLTTPLEDDEFVIHVMENLLPEIRIRLNPPRDLLVDNSCWVLAFTGAFCATIHLREFPSQAESVKEIANKMIDSVRELVEIGIEVGLVRRAFRDLENIVKNLNKWNGTGS | soluble
